The values below come from patent KR20200072008A (dated 2020).

This assay concerns the target SNAP25 197 from lysate of BoNT/A treated N2-42F cells (mouse, UniProt P60879 1-197). The assay is described as follows: sandwich ELISA; detection of captured SNAP25 197 from N2-42F lysate. (In general: In an ELISA, binding on a coated surface is turned into a signal by an enzyme label.)

Sequence of SNAP25 197 from lysate of BoNT/A treated N2-42F cells (P60879 1-197 limits assumed): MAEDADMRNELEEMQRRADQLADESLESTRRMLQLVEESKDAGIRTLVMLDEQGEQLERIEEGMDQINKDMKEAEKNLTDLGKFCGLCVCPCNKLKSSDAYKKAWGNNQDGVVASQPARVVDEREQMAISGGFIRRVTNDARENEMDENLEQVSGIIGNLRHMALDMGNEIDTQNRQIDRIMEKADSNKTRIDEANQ

B1: C16 IgG-HRP 접합체 (antibody, V domains shown)
VH: EVQLQQSGAELARPGASVQMSCKAFGYTFTNYTMHWVRQRPGQGLEWIGFINPSSDYTNYNQKFKDKATLSADKSSSTAYMQLSSLTSEDSAVYYCARRIFYNGRTYAAMDYWGQGTSVTVSS
VL: DIVMTQSPASLAVSLGQRATISCRASKSVSSSGYSYMHWYQQKPGQPPKLLIYLASNLESGVPARFSGSGSGTDFTLNIHPVEEEDAATYYCQHSRELPLTFGAGTKLELK
In the case of B1, the binding result was “binds”.
